# Test results reported in the supplement of paper PMC7125110.
# ± gives the standard error. This sample holds only a part of the variants without activity.
# B1: glmS ribozyme (parent)
# chain: AUAAAAGCGCCAGAACUACAGAAAUGUAGUUGACGAGGAGGAGGUUUAUCGAAUUUUCGGCGGAUGCCUCCAAA
# Variants of: B1
# Assay: self-cleavage kobs at 10000 uM GlcN6P; higher = faster cleavage; RNA array
# Details: with glucosamine-6-phosphate
# Summary of the method: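 Weighted Michaelis–Menten fits across concentrations supplied kcat and KM, based on kobs from one- or two-exponential decay fits to normalised per-tile medians. The data came from barcoded ribozyme variants transcribed in situ by E. coli RNA polymerase on sequenced MiSeq chips and tracked at 37 °C by a hybridised Cy3 probe. Glucosamine-6-phosphate (40 μM to 10 mM) in HEPES/KCl/Mg(OAc)2 buffer was flowed in.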
row,Variant,self-cleavage kobs at 10000 uM GlcN6P [s⁻¹]
1,AUAAAAGCGCCAGAACUACAGAAAUGUAGUUGACUAGGACGAGGUUUAUCGAAUUUUCCGCAGAUGCCCCCAAA [G35U G40C G59C G62A U69C],< 1e-05
2,AUAAAAGCGCCAGAACUACAGAAAUGUAGUUGACGAAGAGGAGGUUUAUCUAAUUUUCGGCGGAUGCGUCCAAA [G37A G51U C68G],< 1e-05
3,AUAAAAGCGCCAGAACUACAGAAAUGUAGUUAACGAGGAGGAGGUUUAUCGAAUAUUCGGCGGAUGGCUCCAAA [G32A U55A C67G],8.33e-05 ± 2.7e-05
4,AUAAAAGCGCCAGAACUACAGAAAUGUAGUUGAUGAGGAGGAGGUUUACGGAAUUUUCGGUGGAUGCGUCGAAA [C34U U49C C50G C61U C68G C71G],0.000303 ± 7.9e-05
5,AUAAAAGCGCCAGAACUACAGAAAUGUAGUUGAUGAGAAGGAGGUUUAUCGAAUUUUCGGCGGAUGCCUGCAAA [C34U G38A C70G],3.44e-05 ± 1.7e-05
6,AUAAAAGCGCCAGAACUACAGAAAUGUAGUUGACUAGGAGGAGGGUUAUCGAAUUUUCGGCGGAUGGCUCCAAA [G35U U45G C67G],< 1e-05
7,AUAAAAGCGCCAGAACUACAGAAAUGUAGUUUACGAGGAGGAGGUUGAUCGAAUUUUCGGCGGAUGCCUGCAAA [G32U U47G C70G],0.00012 ± 3.4e-05
8,AUAAAAGCGCCAGAACUACAGAAAUGUAGUUUACGAGGAGGAGGUUUAGCGAAUUUUCGGCGGGUGCCUCCAAA [G32U U49G A64G],0.000122 ± 2.8e-05
9,AUAAAAGCGCCAGAACUACAGAAAUGUAGUUGGCGAGGAGGAGGUUAAUCGAAUUUUCGGCGGAUGCCUUCAAA [A33G U47A C70U],< 1e-05
10,AUAAAAGCGCCAGAACUACAGAAAUGUAGUUGACGGGGAGGAGGUUUAUCGAAUUUUCGGCGGGUGCCUGCAAA [A36G A64G C70G],< 1e-05
11,AUAAAAGCGCCAGAACUACAGAAAUGUAGUUGACGAGAAGGUGGUUUAUGGAAUUUUCGGCGGAUGGCUCCAAA [G38A A42U C50G C67G],0.000231 ± 6.8e-05
12,AUAAAAGCGCCAGAACUACAGAAAUGUAGUUGGCGAGGAUGAGGUUUAUCGGAUUUUAGGCGGAUGCCUCCAAA [A33G G40U A52G C58A],< 1e-05
13,AUAAAAGCGCCAGAACUACAGAAAUGUAGUUGACAUGGAGGAUGUUUAUCGAAUUUUCGGCGGAUGCCUCCAAA [G35A A36U G43U],< 1e-05
14,AUAAAAGCGCCAGAACUACAGAAAUGUAGUUUACGAGGAGGAGGUUUAUCGAAUUAUAGGCGGAUGCAUCCAAA [G32U U56A C58A C68A],0.000114 ± 2.2e-05
15,AUAAAAGCGCCAGAACUACAGAAAUGUAGUUAACGAGGAGGAGGUUUAUCGAAUCUUCGUUGGAUGCCUCCAAA [G32A U55C G60U C61U],< 1e-05
16,AUAAAAGCGCCAGAACUACAGAAAUGUAGUUGCCGAGGAGGAGGCUUAUCGAAUUUUCGGCGGACGCCUCCAAA [A33C U45C U65C],< 1e-05
17,AUAAAAGCGCCAGAACUACAGAAAUGUAGUUCACGAGGAGGAGGUUUAUCGAAUUUUCGGCGGAUACCUCCAAA [G32C G66A],7.35e-05 ± 1.4e-05
18,AUAAAAGCGCCAGAACUACAGAAAUGUAGUUGACGACGAGGAGGUUUAUCGAGUGUUCGGCGGAUGCCUCCAAA [G37C A53G U55G],3.2e-05 ± 1.4e-05
19,AUAAAAGCGCCAGAACUACAGAAAUGUAGUUGAAGAGGAGGAGGUAUAUCAAAUUUUCGGCGGAUGCCUCCAAA [C34A U46A G51A],< 1e-05

row,Variant,self-cleavage kobs at 10000 uM GlcN6P [s⁻¹]
1,AUAAAAGCGCCAGAACUACAGAAAUGUAGUUGACGAUAAGGAGGGUUAUCAAAUUUUCGGCGGAUGCCUCCAAA [G37U G38A U45G G51A],< 1e-05
2,AUAAAAGCGCCAGAACUACAGAAAUGUAGUUGACGAGAAGGAGGUUUAUCGAAUUUUCGGAGGAUGCCUCUAAA [G38A C61A C71U],< 1e-05
3,AUAAAAGCGCCAGAACUACAGAAAUGUAGUUGCCGAGGAGGAGGUUUAUCGAAUUUUCGGCGGAUGCGUCCAAA [A33C C68G],< 1e-05
4,AUAAAAGCGCCAGAACUACAGAAAUGUAGUUGAAGCGGAGGAGGUUUAUCGAAUUUUCGACGGAUGCCUCCAAA [C34A A36C G60A],< 1e-05
5,AUAAAAGCGCCAGAACUACAGAAAUGUAGUUCACGCGGAGGAGGUUUAUCGAAUUUUCGGCGGAUGUCUCCAAA [G32C A36C C67U],< 1e-05
6,AUAAAAGCGCCAGAACUACAGAAAUGUAGUUCACGAGGAGGAGGUUUAUCGAAAUUUCGGCGGAUGCGUCCAAA [G32C U54A C68G],6.46e-05 ± 2e-05
7,AUAAAAGCGCCAGAACUACAGAAAUGUAGUUGCCGAGGAGGAGGUUUAUCGCAUUUGCGGCGAAUGCCUCCAAA [A33C A52C U57G G63A],< 1e-05
8,AUAAAAGCGCCAGAACUACAGAAAUGUAGUUGACUAGGAGUCGGUUUAUCGAAUUUUCGGCCGAUGCCUACAAA [G35U G41U A42C G62C C70A],< 1e-05
9,AUAAAAGCGCCAGAACUACAGAAAUGUAGUUGCCGAGGAGGAGAUUUUUCGAAUUUUCGGCGGAUGCCUCCAAA [A33C G44A A48U],< 1e-05
10,AUAAAAGCGCCAGAACUACAGAAAUGUAGUUGACCAGGAGGAGGUUUAUCCAAUUUUAGGCGGAUGCCUCCAAA [G35C G51C C58A],< 1e-05
11,AUAAAAGCGCCAGAACUACAGAAAUGUAGUUGACGGGGAGGAGUUUUAUCGACUUUUCGGCGGAUGCCUCCAAA [A36G G44U A53C],< 1e-05
12,AUAAAAGCGCCAGAACUACAGAAAUGUAGUUGACGAAGAGGAGGUUUAUCGGAUUUUCGGCGGAUGUCUCCAAA [G37A A52G C67U],5.39e-05 ± 2.2e-05
13,AUAAAAGCGCCAGAACUACAGAAAUGUAGUUGACGACGAGAAGGUUUAUCUAAUUUUCGGCUGAUGACUCCAAA [G37C G41A G51U G62U C67A],< 1e-05
14,AUAAAAGCGCCAGAACUACAGAAAUGUAGUUGACCAGGAGGAGGAUUAUCGAAUUUUGGGCGGAUGCCUCCAAA [G35C U45A C58G],< 1e-05
15,AUAAAAGCGCCAGAACUACAGAAAUGUAGUUGACGAUGAGGAGGUUUAUCGAAUUUUCGUCGGAUGCCCCCAAA [G37U G60U U69C],< 1e-05
16,AUAAAAGCGCCAGAACUACAGAAAUGUAGUUUACGAUGAGGAAGUUUAUCGGAUUUUCGGCGGAUGUCUCCAAA [G32U G37U G43A A52G C67U],< 1e-05
17,AUAAAAGCGCCAGAACUACAGAAAUGUAGUUGACGAUAAGGAGGUUUAUCUAAUUUUCGGCGGAUGCCUCCAAA [G37U G38A G51U],< 1e-05
18,AUAAAAGCGCCAGAACUACAGAAAUGUAGUUGACAAGGAGGAGGUUUAUCGCAUCUUCGGCGGAUGCCUCCAAA [G35A A52C U55C],< 1e-05
